From article doi:10.1101/2025.04.04.647053 (bioRxiv, 2025) come the findings set out here.

This series deals with the molecule itself. As to the kind of experiment: cryo-EM structure.

B1: AND-1 (natural protein, H. sapiens, UniProt O75717 1-1129, looked up)
chain: MPATRKPMRYGHTEGHTEVCFDDSGSFIVTCGSDGDVRIWEDLDDDDPKFINVGEKAYSCALKSGKLVTAVSNNTIQVHTFPEGVPDGILTRFTTNANHVVFNGDGTKIAAGSSDFLVKIVDVMDSSQQKTFRGHDAPVLSLSFDPKDIFLASASCDGSVRVWQISDQTCAISWPLLQKCNDVINAKSICRLAWQPKSGKLLAIPVEKSVKLYRRESWSHQFDLSDNFISQTLNIVTWSPCGQYLAAGSINGLIIVWNVETKDCMERVKHEKGYAICGLAWHPTCGRISYTDAEGNLGLLENVCDPSGKTSSSKVSSRVEKDYNDLFDGDDMSNAGDFLNDNAVEIPSFSKGIINDDEDDEDLMMASGRPRQRSHILEDDENSVDISMLKTGSSLLKEEEEDGQEGSIHNLPLVTSQRPFYDGPMPTPRQKPFQSGSTPLHLTHRFMVWNSIGIIRCYNDEQDNAIDVEFHDTSIHHATHLSNTLNYTIADLSHEAILLACESTDELASKLHCLHFSSWDSSKEWIIDLPQNEDIEAICLGQGWAAAATSALLLRLFTIGGVQKEVFSLAGPVVSMAGHGEQLFIVYHRGTGFDGDQCLGVQLLELGKKKKQILHGDPLPLTRKSYLAWIGFSAEGTPCYVDSEGIVRMLNRGLGNTWTPICNTREHCKGKSDHYWVVGIHENPQQLRCIPCKGSRFPPTLPRPAVAILSFKLPYCQIATEKGQMEEQFWRSVIFHNHLDYLAKNGYEYEESTKNQATKEQQELLMKMLALSCKLEREFRCVELADLMTQNAVNLAIKYASRSRKLILAQKLSELAVEKAAELTATQVEEEEEEEDFRKKLNAGYSNTATEWSQPRFRNQVEEDAEDSGEADDEEKPEIHKPGQNSFSKSTNSSDVSAKSGAVTFSSQGRVNPFKVSASSKEPAMSMNSARSTNILDNMGKSSKKSTALSRTTNNEKSPIIKPLIPKPKPKQASAASYFQKRNSQTNKTEEVKEENLKNVLSETPAICPPQNTENQRPKTGFQMWLEENRSNILSDNPDFSDEADIIKEGMIRFRVLSTEERKVWANKAKGETASEGTEAKKRKRVVDESDETENQEEKAKENLNLSKKQKPLDFSTNQKLSAFAFKQE
In the case of B1, the stoichiometry N (usually the number of molecules, sites or subunits per partner or assembly) stood at 3.
